For 37 sequences, Kd and IC50 results are on record in the Immune Epitope Database (IEDB).

Usually Kd stands for the free concentration of one partner at which half of the binding sites on the other are occupied at equilibrium, for simple one-to-one binding. One may read the IC50 as the point on the concentration scale where inhibition reaches its midpoint.

The first assay concerns the target HLA-A*02:01. Description: IEDB peptide-MHC binding, purified MHC/competitive/radioactivity; filed as Kd, often an IC50 or EC50 that approximates it; ≥ and ≤ were set here for values at or beyond the usual limits of such assays. Conditions: source organism: Homo sapiens.
For AANDPIFVV, the Kd was at least 10 µM. Consider AARPDDPTL, for which the Kd is at least 10 µM. As to ALDLAKKRV, the Kd was at least 10 µM. On the same count and under the same terms, to ALPYWNFAT belongs 1.35 µM; to ATGRNECDV, at least 10 µM. On the same count and under the same terms, to CLERDLQRL belongs at least 10 µM. Take GAQGQFPRV: the Kd was at least 10 µM.

As to GTLVALVGL, the Kd was 4.54 µM.

Consider ITTQHWLGL, for which the Kd was at least 10 µM. The same measure, in the same setting: to LAFLQYRRL belongs at least 10 µM; to LLAFLQYRRL, 1.52 µM; to LLSCLGCKI, 3.57 µM. For the sequence LLSCLGCKIL, the Kd is at least 10 µM. Same read-out and setting: to LLVVMGTLV belongs 1.35 µM; to NCERKKPPV, at least 10 µM; to NCSVYDFFV, at least 10 µM. With QGRGQCTEV, the Kd is at least 10 µM. The same measure, in the same setting: the figure for QLGYSYAIDL is 2.63 µM; for QMGRNSMKL it is at least 10 µM; for SAANDPIFV it is 4.54 µM. In the case of STFSFRNAL, the dissociation constant (Kd) is at least 10 µM. Take TLLVVMGTL: the Kd is 2.63 µM. On the same count and under the same terms, the figure for TTQHWLGLL is at least 10 µM.

Regarding VALVGLFVL, the Kd is 7.14 µM. With VCMTVDSLV, the Kd stood at 7.14 µM. For the sequence WLGLLGPNG, the Kd was at least 10 µM.

As for WMKRFNPPA, the Kd stood at 8.33 µM.

For the sequence YTPLMETHL, the Kd was at least 10 µM.

For the next assay, the target named is HLA-A*02:01. Briefly: IEDB peptide-MHC binding, purified MHC/competitive/radioactivity; ≥ and ≤ were set here for values at or beyond the usual limits of such assays. As to conditions: source organism: Homo sapiens.
Regarding ALVGLFVLL, the IC50 came out at 0.026 µM.

As for FVTWHRYHL, the IC50 came to 0.943 µM.

For the sequence LIGNESFAL, the IC50 came to 0.385 µM. Regarding QVMSLHNLV, the IC50 is 0.676 µM.

Consider TLDSQVMSL, for which the IC50 came to 0.161 µM. The same measure, in the same setting: to TLLVVMGTLV belongs 0.357 µM; to TLVALVGLFV, 0.029 µM. Turning to VLHSFTDAI, the IC50 stood at 0.417 µM.

Take VTWHRYHLL: the IC50 is 0.161 µM.
